The results in this text go back to the nanobody polyreactivity screen of Harvey et al. (2022).

This data set is described as follows: yeast display, Sf9 membrane polyspecificity reagent, FACS + sequencing; frameworks hold sequencing errors. The method in brief:
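A synthetic nanobody library was expressed on Saccharomyces cerevisiae BJ5465 by galactose induction for 36–48 hours. The library was stained for 1 hour at 4 °C with 10% biotinylated, detergent-solubilized Sf9 membrane reagent and enriched with streptavidin microbeads before FACS. Low and high (top ~1%) gates were set on anti-HA fluorescence for expression and streptavidin fluorescence for reagent binding, and each polyreactivity label reflects the gate of origin.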
On to “QVQLVESGGGLVQAGGSLRLSCAASGSTFVQNTMGWYRQAPGKERELVAAITRGGSTSYADSVKGRFTISRDNAKNTVYLQMNSLKPEDTAVYYCNAKSRSPTYRYRSWPYNYWGQGTQVTVSS”, for which the “polyreactivity (PSR sort gate)” value was “high polyreactivity”.

For the sequence “QVQLVESGGGLVQAGGSLRLSCAASGSTFVQYAMGWYRQAPGKERELVAAITRSGGSTYYADSVKGRFTISRDNAKNTVYLQMNSLKPEDTAVYYCAADFSSSYRAFNYWGQGTQLTVSS”, the “polyreactivity (PSR sort gate)” value is “high polyreactivity”.

As for “QVQLVESGGGLVQAGGSLRLSCAASGSTFVRNAMGWYRQAPGKERELVAAITSSGGSTYYADSVKGRFTISRDNAKNTVYLQMNSLKPEDTAVYYCNAELGSDTANYDYWGQGTQVTVSS”, the “polyreactivity (PSR sort gate)” value was “low polyreactivity”.

For the sequence “QVQLVESGGGLVQAGGSLRLSCAASGSTFVRNAMGWYRQAPGKERELVAGISTGDNTYYADSVKWRFTISRDNAKNTVYLQMISLKPEDTAVYYCNATKEFSFGLDYWGQGTQVTVSS”, the “polyreactivity (PSR sort gate)” value is listed as “low polyreactivity”.

With “QVQLVESGGGLVQAGGSLRLSCAASGSTFVRNAMGWYRQAPWKERELVAAIRWRSGSTYYADSVKGRFTISRDNAKNTVYLQMNSLKPEDPAVYYCAVDYNSFRYGPLGYWGQGTQVTVSS”, the “polyreactivity (PSR sort gate)” value is on record as “high polyreactivity”. The entry for “QVQLVESGGGLVQAGGSLRLSCAASGSTFVRNAMGWYRQATGKERELVAAITTSGARTYYADSVKGRFTISRDNAKNTVYLQMNSLKPEDTAVYYCAAEYKGRTYRFDYWGQGTQVTVSS” is “low polyreactivity”; for “QVQLVESGGGLVQAGGSLRLSCAASGSTFVRNDMGLYRQAPGKERELVAAITRGGRTYYADSVKGRFTISRDNAKNTVYLQMNSLKPEDTAVYYCAAEGTGYSVGWQYGYWVQGTQVTVSS” it is “low polyreactivity”. The entry for “QVQLVESGGGLVQAGGSLRLSCAASGSTFVRNGMGWYRQSPGKVRELVASISGRGGSTYYADSVKGRFTISRDNAKNTVYLQMNSLKPEDTAVYYCAARKQRGGGPTFDYWGQGTQVTVSS” is “high polyreactivity”; for “QVQLVESGGGLVQAGGSLRLSCAASGSTFVRNVMGWYRQAPGKERELDAAITRSGDTTYYADSVKGRFTISRDNAKNTVYLQMNSLKPEDTAVYYCAKRTFVRRGSIYPIDDYWGQGTQVTVSS” it is “low polyreactivity”. As to “QVQLVESGGGLVQAGGSLRLSCAASGSTFVRNVMGWYRQAPGKERELVAAITRSGDTTYYADSVKGRFTISRDNAKNTVYLQMNSLKPEDTAVYYCAKRTFVRRGSIYPIDDYWGQGTQVTVSS”, the “polyreactivity (PSR sort gate)” value is on record as “low polyreactivity”. For “QVQLVESGGGLVQAGGSLRLSCAASGSTFVRYAMGWYRQAPGKERELVAAIRGGGGTYYADSVKGRFTISRDNAKNTVYLQMNSLKPEDTAVYYCAADTYYYYWFAGYTEYDYWGQGTQVTVSS”, the “polyreactivity (PSR sort gate)” value was “low polyreactivity”. The entry for “QVQLVESGGGLVQAGGSLRLSCAASGSTFVRYAMGWYRQAPGKERELVAAISGGGSTSYADSVKGRFTISRDNAKNTVYLQMNSLKPEDTAVYFCAKAGYRSEFEYWGQGTQVTLSS” is “low polyreactivity”; for “QVQLVESGGGLVQAGGSLRLSCAASGSTFVRYAMGWYRQAPGKERELVAAISRRGSSTYYADSVKGRFTISRDNAKNTVYLQMNSRKPEDTADYYCAVDYSPGFDDYDYWGQGTHVTVSS” it is “high polyreactivity”; for “QVQLVESGGGLVQAGGSLRLSCAASGSTFVRYAMGWYRQAPGKERELVASISSSGSTYYADSVKGRFTISRDNAKNTVYLQMNSLKPEDTAVYYCAKQYGGRYGYWGQGTQVTVSS” it is “low polyreactivity”. As to “QVQLVESGGGLVQAGGSLRLSCAASGSTFVRYVMGWYRQAPGKERELVAAISEGGGSTYYADSVKGRFTISRDNAKNTVYLQMNSLKPEDTAVYYCAAGRSNSYSPRRRVTYGYNYWGQGTQVTVSS”, the “polyreactivity (PSR sort gate)” value was “high polyreactivity”. For the sequence “QVQLVESGGGLVQAGGSLRLSCAASGSTFVRYVMGWYRQAPGKERELVAAISRRGGSTYYADSVKGRFTISRDNAKNTVYLQMNSLKPEDTAVYYCAARGTSRKYYYWGQGTQVTVSS”, the “polyreactivity (PSR sort gate)” value was “high polyreactivity”. The entry for “QVQLVESGGGLVQAGGSLRLSCAASGSTFVSNAMGWDRQAPGQEREVVAALSSGGSPYYADSVKGRFTISRDNAKNTVYLQMNRLKPEDTAVYYCNKRRGRKWPGNYSVVKLLMGYWGQGTQVTVSS” is “low polyreactivity”; for “QVQLVESGGGLVQAGGSLRLSCAASGSTFVSNAMGWYRQAPGKERELVAAISSSGGRTSYADSVKGRFTISRDNAKNTVYLQMNSLKPEDTAVYYCAARFKSVDYVQYYYWGQGTQVTVSS” it is “low polyreactivity”.

On to “QVQLVESGGGLVQAGGSLRLSCAASGSTFVSNAMGWYRQAPGKERELVAAISTSGGSTYYADSVKGRFTISRDNAKKTVYLQMNSLKTEDTAVYFCAAVSPRRYRYDYWGQGTQVTVSS”, for which the “polyreactivity (PSR sort gate)” value is recorded as “low polyreactivity”. Then “QVQLVESGGGLVQAGGSLRLSCAASGSTFVSNAMGWYRQAPGKERELVAAITTGGSTYYADSVKGRFTISRDNAKNTVYLQMNSLKPEDTAVYYCAADSVLNWFWGYEYWGQGTQVTVSS”, with “low polyreactivity”; and “QVQLVESGGGLVQAGGSLRLSCAASGSTFVSYALGWYRQAPGKERDLVAAISRSGGSTYYADSVKGRFTISRDNAKNTVYVQMNRLKPEDTAVFYCAADCRGPSKRNRDYWGQGTEVTVSS”, with “high polyreactivity”.

As for “QVQLVESGGGLVQAGGSLRLSCAASGSTFVSYAMGGSRQAPGKERELVAAISRSGGSTYYADSVKGRFTISRDTAKNTVYLQMNSLKPEDTAGYYCAADGRGPSKRNRDYWGQGTQVTVSS”, the “polyreactivity (PSR sort gate)” value was “high polyreactivity”. Then “QVQLVESGGGLVQAGGSLRLSCAASGSTFVSYAMGWYRQAPGKERELVAVISYRGGGTYYADSVKGRFTISRDNAKNTVYLQMNSLKPEDTAVYYCNAELWVLVSSYSYHYDGFDYWGQGTQVTVSS”, with “low polyreactivity”; and “QVQLVESGGGLVQAGGSLRLSCAASGSTFVSYTMGWYRQAPGKERELVAAISYNGARTYYADSVKGRFTISRDNAKNTVYLQMISLKPEDTAVYDCARRYYSQYDYWGQGTQVTVSS”, with “high polyreactivity”. The entry for “QVQLVESGGGLVQAGGSLRLSCAASGSTFVVNAMGWYSLAPGKERELVAAITQDGDGTYYADSVKGRFTISRDNAKNTVYLQMNSLKPEDTAVYYCAAYPFSGPYDEFDYWRQGTQVTVSS” is “low polyreactivity”; for “QVQLVESGGGLVQAGGSLRLSCAASGSTFVVNDMGWYRQAPGKDRELVASITAGGSTYYADSVKGRFTISRDNAKNTVNLQMNSLKPEDTAVYYCAKVQDRAYLPHQRGRERDYDYWGQGTQVTVSS” it is “low polyreactivity”.

Regarding “QVQLVESGGGLVQAGGSLRLSCAASGSTFVVYAMGWYRQAPGKERELVARITLSDGSTNYADSVKGRFTISRDNAKNTVYLQMNSLKPEDTAVYYCAAEVVPFYYFWFDYWGQGTQVTVSS”, the “polyreactivity (PSR sort gate)” value is “low polyreactivity”.

For the sequence “QVQLVESGGGLVQAGGSLRLSCAASGSTFVWYAMGWYRQAPGKERELVASITSGGNTNYADSVKGRFTISRDNAKNTVYLQMNSLKPEDSAVYYCNAVRSQRSLSSRYYYWGQGTQVTVSS”, the “polyreactivity (PSR sort gate)” value was “low polyreactivity”.

For the sequence “QVQLVESGGGLVQAGGSLRLSCAASGSTFVYNAMGWYRQAPGKERELVAAITVSDGSTYYADSVKGRFTISRDNAKNTVYLQMNSLKPEDTAVYYCNADFPRKTRYEYWGQGTQVTVSS”, the “polyreactivity (PSR sort gate)” value was “low polyreactivity”.

Consider “QVQLVESGGGLVQAGGSLRLSCAASGSTFVYNVMGWYRQAPGKERELVAAIRWRGGSTYADSVKGRFTISRDNAKNSVYLQMTSLKPQDTAVYYSNTGHEEDEYDYWGQGTQVTVSS”, for which the “polyreactivity (PSR sort gate)” value is recorded as “low polyreactivity”.

“QVQLVESGGGLVQAGGSLRLSCAASGSTFVYYAMGWYRQAPGKERALVASITTSAGSTYYADSVKGRFTISRDTAKNSVYLQMNSLKPEDTAVYYCNARITITYYYWGQGTQVTVSS”: the “polyreactivity (PSR sort gate)” value was “high polyreactivity”. Then “QVQLVESGGGLVQAGGSLRLSCAASGSTFVYYAMGWYRQAPGKERELVADISWSGGDTYYADSVKGRFTISRDNAKNTVYLQMNSLKPVDTAVYYCAAEWSTPSYVGFADGFEYWGQGTQVTVSS”, with “low polyreactivity”. Then “QVQLVESGGGLVQAGGSLRLSCAASGSTFVYYAMGWYRQAPGKERELVARISSGGSTYYADSVKGRFTISRDNAKNTVYLQMNSLKPEDTAVYYCAVLLWVSPLKREFYWGQGTQVTVSS”, with “high polyreactivity”; and “QVQLVESGGGLVQAGGSLRLSCAASGSTFVYYAMGWYRQAPGKERELVATINYNGGSTSYADSVKGRFTISRDNAKNTVYLQMNSLKPEDTAVYYCAKDRYYTWGDYWGQGTQVTVSS”, with “low polyreactivity”. Then “QVQLVESGGGLVQAGGSLRLSCAASGSTFVYYAMGWYRQAPGKERELVATITSGGSTKYADSVKGRFTISRDNAKNTVYLQMNSLKPEDTAVYYCAAAYRVRGRTYDSWGQGTQVTVSS”, with “high polyreactivity”.

Take “QVQLVESGGGLVQAGGSLRLSCAASGSTFVYYAMGWYRQAPGKERELVAVITWSGGRTYYADSVKGRFTISRDNAKNTVYVLMNSLKPEDTAVYYCAARYPGYQYGLDYWGEGTQVTVSS”: the “polyreactivity (PSR sort gate)” value is recorded as “high polyreactivity”. The entry for “QVQLVESGGGLVQAGGSLRLSCAASGSTFVYYTMGWYRQAPGKERELVATITYGGGSTYYADSVKGRFTISRDNAKNTVYLQMNSLKPEVTAVYYCAARPSWVRKMYYWGQGTQVTVSS” is “high polyreactivity”; for “QVQLVESGGGLVQAGGSLRLSCAASGSTFWAYAMGWYRQAPGKERELVAAITTGGGRTFYADSVKGRFTISRDNAKNTVYLQMNSLKPEDTAVYYCAAVSQSYRMYYWGQGTQVTVSS” it is “low polyreactivity”. In the case of “QVQLVESGGGLVQAGGSLRLSCAASGSTFWFYAMGWYRQAHGKERELVAVISNSGSTYYADSVKGRFTISRDNAKNTVYLQMNSLKPEDTAVYYCNKDGGGDSYWYDYWGQGTQVTVSS”, the “polyreactivity (PSR sort gate)” value is “low polyreactivity”.

As for “QVQLVESGGGLVQAGGSLRLSCAASGSTFWGYAMAWYRQAPGKERELVATINQSAGSTYYADSVKGRFTISRDNAKNTVYLQMNSLKPEDTAVYYCAAEARVQFSYDYWGQGTQVTVSS”, the “polyreactivity (PSR sort gate)” value is “low polyreactivity”. Then “QVQLVESGGGLVQAGGSLRLSCAASGSTFWGYAMGWSRPAPGKERELVATITTGGGGTYYADSVKGRFTISRDNAKNTVYLQMNSLKPEDTAVYYCAARLRDGRTPRTEYDYWGQGTQVTVSS”, with “low polyreactivity”.
